Square brackets hold non-standard residues; d marks the D form.
Experiments:
[1] = biological target: T1, retinoblastoma binding protein 4 (RBBp4) (UniProt Q09028 1-425); assay: isothermal titration calorimetry, peptide titrated into RBBp4, 1:1 binding model
T1 construct: Bought protein; Crystal structure numbering runs at least over residues 33-404; also called RbAp48
Description: (§1) ITC was carried out with an Auto-iTC200 instrument from Microcal Inc. at 25° C. […] of RBBp4 in 50 mM Tris and 100 mM NaCl at pH 7.4 was loaded into the ITC cell. Sal14 peptide at […] was auto-loaded into the syringe. The titration was carried out with 18 injections of 2.4 μl, performed over a period of 30 min with stirring at 1000 rpm. The ITC data was analysed using Origin software from Microcal.

[2] = biological target: T1, retinoblastoma binding protein 4 (RBBp4); assay: fluorescence polarization competition: peptide titrated into RBBp4 + C-terminal FITC-labelled WT SALL4 peptide
[3] = biological target: T1, retinoblastoma binding protein 4 (RBBp4); assay: cell-based or functional assay
[4] = biological target: T1, retinoblastoma binding protein 4 (RBBp4); assay: SPR (Biacore T200), RBBp4 amine-coupled to CM5 chip, peptide as analyte; surface plasmon resonance
Description: SPR studies were performed using a Biacore T200 biosensor (GE Healthsciences). ˜12,000 resonance units (RU) of RBBp4 were immobilised by amine coupling to the carboxymethylated dextran matrix of a Series S CM5 chip (Biacore, GE Healthcare). […] The association time and flow rate were set at 60 s and 30 μl/min respectively.

[5] = biological target: T1, retinoblastoma binding protein 4 (RBBp4); assay: isothermal titration calorimetry, peptide titrated into RBBp4, 25 °C; isothermal titration calorimetry
Description: as §1

[6] = biological target: T1, retinoblastoma binding protein 4 (RBBp4); assay: fluorescence polarization competition; peptide titrated into RBBp4 with C-labelled FITC-SALL4 WT peptide as the displaced tracer
Description: (§2) FIGS. 3A-3E. […] The difference in the binding free energy (ΔΔGbind) of the alanine mutants (ΔGₘᵤₜₐₙₜ, Ala7 was mutated to glycine) and wild type (ΔG_{wild type}) was calculated (ΔΔGbind=ΔGₘᵤₜₐₙₜ−ΔG_{wild type}). ΔΔGbind was tabulated (left) and plotted in a bar chart (right). […] Mutated residues are highlighted in red. The IC₅₀ of each peptide, including WT, was determined by Fluorescence Polarization (FP). […] Polarization was measured in mP. […] Pep-1 carrier was added to the peptide to facilitate cellular penetration of the peptides.
(§3) In silico analysis using computational alanine scanning was performed on the key residues identified by the crystal contacts.

[7] = biological target: T1, retinoblastoma binding protein 4 (RBBp4); assay: as above; remark: listed apart in the source
Description: as §2, §3

[8] = biological target: T1, retinoblastoma binding protein 4 (RBBp4); assay: fluorescence polarization competition: peptide titrated into RBBp4 + C-terminal FITC-labelled WT SALL4 peptide; remark: listed apart in the source
Description: (§4) Reactions were incubated at room temperature before the plate was read with an Envision instrument (Perkin Elmer). IC₅₀ values of peptides were determined using Prism (GraphPad).

[9] = biological target: T1, retinoblastoma binding protein 4 (RBBp4); assay: fluorescence polarization competition, ratio of IC50s
Description: These three substitutions (Gln4Phe, Pro7Phe, and His9Trp) were incorporated into peptide 46 ([…], named FFW hereof, (SEQ ID NO: 14)).
as §4

T1 sequence (Q09028 whole entry, the tested form may be a part): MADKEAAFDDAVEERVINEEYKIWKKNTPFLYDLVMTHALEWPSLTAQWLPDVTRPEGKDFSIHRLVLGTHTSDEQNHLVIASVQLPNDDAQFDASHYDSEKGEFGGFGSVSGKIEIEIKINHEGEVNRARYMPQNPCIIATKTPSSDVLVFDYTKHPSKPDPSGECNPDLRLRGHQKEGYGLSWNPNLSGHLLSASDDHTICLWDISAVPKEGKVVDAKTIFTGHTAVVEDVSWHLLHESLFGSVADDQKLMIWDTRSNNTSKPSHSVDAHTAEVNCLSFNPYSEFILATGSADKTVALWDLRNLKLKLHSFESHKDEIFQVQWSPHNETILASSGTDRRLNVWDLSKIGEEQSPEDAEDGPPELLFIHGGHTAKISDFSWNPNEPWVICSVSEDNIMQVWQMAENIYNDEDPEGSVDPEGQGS
T1 sequence (Q09028 whole entry): as the sequence (Q09028 whole entry, the tested form may be a part) above

Binder	IC50 [8] [nM]	other results
MSRRKQAKPQHI (As used in ITC, SPR, crystal structure and the alanine-scan FP assay; also called SALL4 WT; 12-aa SALL4 peptide) [WT SALL4 peptide (1-12 aa), MSRRKQAKPQHI]		Ka [1]: 960000 M⁻¹; IC50 [2]: 1000 nM; PTEN expression by Q-PCR in SNU398 cells treated with peptide [3]: 3 fold; Kd [4]: 1500 nM; koff [4]: 0.026 s⁻¹; kon [4]: 16800 M⁻¹ s⁻¹; Kd [5]: 1040 nM
MSRRAQAKPQHI [SALL4 (1-12) peptide bearing the K5A mutation]		IC50 [2]: 7000 nM
MSRRKAAKPQHI [SALL4 (1-12) peptide bearing the Q6A mutation]		IC50 [2]: 1300 nM
MSARKQAKPQHI [SALL4 (1-12) peptide bearing the R3A mutation]		IC50 [6]: 4500 nM; IC50 [2]: 3800 nM; IC50 [7]: 4500 nM
MSRAKQAKPQHI [SALL4 (1-12) peptide bearing the R4A mutation]		IC50 [2]: 8900 nM
MSRRAAAKPQHI (One of the double mutants with the loss of only one key residue (group m57); also called SALL4 (1-12) peptide, double mutant K5A-Q6A) [mut K5A,Q6A]		IC50 [6]: 4400 nM; IC50 [7]: 4400 nM
MSARKAAKPQHI (One of the double mutants with the loss of only one key residue (group m57); also called SALL4 (1-12) peptide, double mutant R3A-Q6A) [mut R3A,Q6A]		IC50 [6]: 4100 nM; IC50 [7]: 4100 nM
MSRAKAAKPQHI (One of the double mutants with the loss of only one key residue (group m57); also called SALL4 (1-12) peptide, double mutant R4A-Q6A) [mut R4A,Q6A]		IC50 [6]: 4700 nM; IC50 [7]: 4700 nM
Ac-MSRRKQAKPQHI-NH2 (also called WT; original 12-residue WT peptide) [Peptide 1 (Ac-MSRRKQAKPQHI-NH2)]	1040	IC50 [2]: 1300 nM
Ac-MSRRKQAKPQH-NH2 (C-terminal truncation of WT) [Peptide 2 (Ac-MSRRKQAKPQH-NH2)]	1290	IC50 [2]: 1400 nM
Ac-MSRRKQAKPQ-NH2 (C-terminal truncation of WT) [Peptide 3 (Ac-MSRRKQAKPQ-NH2)]	800	
Ac-MSRRKQAKP-NH2 (C-terminal truncation of WT) [Peptide 4 (Ac-MSRRKQAKP-NH2)]	1910	IC50 [2]: 1960 nM
Ac-SRRKQAKPQHI-NH2 (N-terminal truncation of WT) [Peptide 5 (Ac-SRRKQAKPQHI-NH2)]	600	
Ac-RRKQAKPQHI-NH2 [Peptide 6 (printed Ac-…-NH2; WT without Met1 and Ser2)]	360	
Ac-RRKAAKPQHI-NH2 [Peptide 11 (Ac-RRKAAKPQHI-NH2)]	190	
Ac-RRKQAAPQHI-NH2 [Peptide 12 (Ac-RRKQAAPQHI-NH2)]	160	
Ac-RRKQAKAQHI-NH2 (Ala scan of peptide 6) [Peptide 13 (Ac-RRKQAKAQHI-NH2)]	270	
Ac-RRKQAKPAHI-NH2 [Peptide 14 (Ac-RRKQAKPAHI-NH2)]	120	
Ac-RRKQAKPQAI-NH2 [Peptide 15 (Ac-RRKQAKPQAI-NH2)]	730	
Ac-RRKQAKPQHA-NH2 [Peptide 16 (Ac-RRKQAKPQHA-NH2)]	460	
Ac-KRKQAKPQHI-NH2 (R1 mutation of peptide 6) [Peptide 17 (Ac-KRKQAKPQHI-NH2)]	3800	
Ac-RKKQAKPQHI-NH2 (R2 mutation of peptide 6) [Peptide 18 (Ac-RKKQAKPQHI-NH2)]	2300	
Ac-RRRQAKPQHI-NH2 (K3 mutation of peptide 6) [Peptide 19 (Ac-RRRQAKPQHI-NH2)]	630	
Ac-RRKEAKPQHI-NH2 (Q4 mutation of peptide 6) [Peptide 20 (Ac-RRKEAKPQHI-NH2)]	3490	

Binder	IC50 [8] [nM]	other results
Ac-RRKNAKPQHI-NH2 (Q4 mutation of peptide 6) [Peptide 21 (Ac-RRKNAKPQHI-NH2)]	920	
Ac-RRKVAKPQHI-NH2 (Q4 mutation of peptide 6) [Peptide 22 (Ac-RRKVAKPQHI-NH2)]	410	
Ac-RRKLAKPQHI-NH2 (Q4 mutation of peptide 6) [Peptide 23 (Ac-RRKLAKPQHI-NH2)]	270	
Ac-RRKFAKPQHI-NH2 [Peptide 24 (Ac-RRKFAKPQHI-NH2)]		IC50 [2]: 50 nM; fold enhancement in binding affinity over peptide 6 [9]: 7 fold
Ac-RRKQKKPQHI-NH2 [Peptide 25 (Ac-RRKQKKPQHI-NH2)]	380	
Ac-RRKQRKPQHI-NH2 [Peptide 26 (Ac-RRKQRKPQHI-NH2)]	460	
Ac-RRKQAVPQHI-NH2 [Peptide 27 (Ac-RRKQAVPQHI-NH2)]	910	
Ac-RRKQALPQHI-NH2 [Peptide 28 (Ac-RRKQALPQHI-NH2)]	310	
Ac-RRKQAFPQHI-NH2 [Peptide 29 (Ac-RRKQAFPQHI-NH2)]	530	
Ac-RRKQARPQHI-NH2 [Peptide 30 (Ac-RRKQARPQHI-NH2)]	330	
Ac-RRKQAKVQHI-NH2 (P7 mutation of peptide 6) [Peptide 32 (Ac-RRKQAKVQHI-NH2)]	5800	
Ac-RRKQAKLQHI-NH2 (P7 mutation of peptide 6) [Peptide 33 (Ac-RRKQAKLQHI-NH2)]	4400	
Ac-RRKQAKFQHI-NH2 [Peptide 34 (Ac-RRKQAKFQHI-NH2)]	170	
Ac-RRKQAKPEHI-NH2 [Peptide 35 (Ac-RRKQAKPEHI-NH2)]	570	
Ac-RRKQAKPNHI-NH2 [Peptide 36 (Ac-RRKQAKPNHI-NH2)]	790	
Ac-RRKQAKPVHI-NH2 [Peptide 37 (Ac-RRKQAKPVHI-NH2)]	350	
Ac-RRKQAKPLHI-NH2 [Peptide 38 (Ac-RRKQAKPLHI-NH2)]	460	
Ac-RRKQAKPQFI-NH2 [Peptide 39 (Ac-RRKQAKPQFI-NH2)]	340	
Ac-RRKQAKPQYI-NH2 [Peptide 40 (Ac-RRKQAKPQYI-NH2)]	2850	
Ac-RRKQAKPQWI-NH2 [Peptide 41 (Ac-RRKQAKPQWI-NH2)]	120	fold improvement of binding affinity compared with peptide 6 [9]: 3 fold
Ac-RRKQAKPQVI-NH2 [Peptide 42 (Ac-RRKQAKPQVI-NH2)]	480	
Ac-RRKQAKPQHL-NH2 (To be rechecked) [Peptide 44 (printed Ac-RRKCIAKPOHL-NH2)]	590	
Ac-RRKQAK[code p]QHI-NH2 (not fully specified; printed as Ac-RRKQAKpQHI-NH2, P7 mutation of peptide 6; position 7 printed in lower case) [Peptide 31 (Ac-RRKQAKpQHI-NH2)]	6600	
Ac-RRKFAKFQWI-NH2 (Gln4Phe, Pro7Phe and His9Trp of peptide 6; also called FFW peptide) [Peptide 46 (Ac-RRKFAKFQWI-NH2), FFW]	23	fold increase in affinity compared with the 12-residue WT peptide [9]: > 56 fold
